T1: endogenous 14-3-3, P62258
T1 chain: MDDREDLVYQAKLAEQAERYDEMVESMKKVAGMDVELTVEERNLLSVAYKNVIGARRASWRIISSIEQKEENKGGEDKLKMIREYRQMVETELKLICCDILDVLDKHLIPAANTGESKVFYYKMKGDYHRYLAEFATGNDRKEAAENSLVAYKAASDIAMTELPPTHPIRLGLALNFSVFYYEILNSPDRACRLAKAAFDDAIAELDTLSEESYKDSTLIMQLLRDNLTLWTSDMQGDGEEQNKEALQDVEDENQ

B1: 14-3-3β (natural protein, human (endogenous in Expi293F), UniProt P31946 1-246, looked up)
chain: MTMDKSELVQKAKLAEQAERYDDMAAAMKAVTEQGHELSNEERNLLSVAYKNVVGARRSSWRVISSIEQKTERNEKKQQMGKEYREKIEAELQDICNDVLELLDKYLIPNATQPESKVFYLKMKGDYFRYLSEVASGDNKQTTVSNSQQAYQEAFEISKKEMQPTHPIRLGLALNFSVFYYEILNSPEKACSLAKTAFDEAIAELDTLNEESYKDSTLIMQLLRDNLTLWTSENQGDEGDAGEGEN
notes: 14-3-3 protein beta, human; residues 3-232 modelled in the cryo-EM structure; also called 14-3-3 beta; β isoform; source: endogenous, Expi293F, co-purified with PEAK3-1xFLAG
B2: FLAG-tagged WT PEAK3, Q6ZS72 S69A (protein)
chain: MSSPEPPTEPPEPDNPTWSTQPTYSNLGQIRAHLLPSKACRLRTPGSLSTNPEPLPPPLPKKILTRTQALPTRRTLHPSSIQVQPPRRPFLGSHSVDKSQAAVGPACLPAELTFGPADAPLGLSLRDLHSPEAVHTALAARQLQGLRTIYARLRARLMGGHPGPCHPGHSFRLLDSSPCAESGDALYYRVVRAHEDAWHILVAKVPKPGADVPHPWGLELQASLSPHFNLQGLCGLVPEGTLPGAPWRGAVALAAEVPERTVAQWLAEACTQPPEEFVWAVALLLLQLSAALKFLEAWGAALVELRPENLLLVAPRGCATTGPPRLLLTDFGRVCLQPPGPPGSPGPHAPQLGSLLRALLSLAAPSTTPLAAGLELLAAQLTRLRPSASRTRGALQALLWGPGPELRGRGAPLGPWLRALGPWLRVRRGLLVLRLAERAAGGEAPSLEDWLCCEYLAEATESSMGQALALLWD
B3: FLAG-tagged WT PEAK3, Q6ZS72 K293A; W298A (protein)
chain: B2 chain with A69S, K293A, W298A
B4: FLAG-tagged full-length human PEAK3 (PEAK3-1xFLAG) (natural protein, UniProt Q6ZS72 1-473, looked up)
chain: B2 chain with A69S
modifications: phosphoserine at 69
notes: PEAK3 pseudokinase (C19orf35), human, gene synthesized by GenScript; residues modelled: chain A 128-406, 419-473; chain B 130-406, 415-472; N-terminal peptides chain E 66-73 and chain P 66-72; Purifies as a homodimer, alone or in complex with an endogenous 14-3-3 heterodimer; also called C19orf35; PEAK3 homodimer; source: Expi293F, transfected, purified (G1 Flag resin, FLAG peptide elution, …)
B5: FLAG-tagged WT PEAK3, Q6ZS72 W298A (protein)
chain: B2 chain with A69S, W298A
B6: FLAG-tagged WT PEAK3, Q6ZS72 K293A (protein)
chain: B2 chain with A69S, K293A
B7: FLAG-tagged WT PEAK3, Q6ZS72 S225A (protein)
chain: B2 chain with A69S, S225A

Series [1] addresses FLAG-tagged PEAK3 R147A (human) (UniProt Q6ZS72). Put plainly: co-IP; FLAG-tagged PEAK3 variants transiently expressed in HEK293; anti-FLAG/protein A beads overnight at 4 °C; endogenous 14-3-3 detected with anti-pan 14-3-3 by Western blot; also after 1 h of 0.1% DMSO or PKD inhibitors CRT0066101 or CID755673 (dose-dependent decrease, not abolished). For orientation: In western blotting, separated proteins are transferred to a membrane and probed.

The target of series [2] is B4. As to the kind of experiment: cryo-EM structure; PEAK3/14-3-3 complex co-purified from Expi293F (FLAG affinity, SEC), 7 uM, 0.1% n-Octyl-β-D-glucoside; 169,563 particles, C1, 3.1 Å. As to conditions: both partners purified.
Series [3] deals with T1, endogenous 14-3-3, P62258. Put plainly: co-immunoprecipitation, quantified Western blot. As to conditions: chain shown with the change; transiently expressed in HEK293 cells; 3 independent experiments; parent: est. 100; read off a plot.
Series [4] deals with the molecule itself. Put plainly: cryo-EM structure; PEAK3/14-3-3 complex co-purified from Expi293F (FLAG affinity, SEC), 7 uM, 0.1% n-Octyl-β-D-glucoside; 169,563 particles, C1, 3.1 Å.

Positions count from the first letter of the chain named. In names and notes the source's numbering stands.

With “endogenous 14-3-3 (from UniProt P62258 1-255) (FLAG-tagged variant transiently expressed in HEK293)”, the reduction in 14-3-3 association relative to WT PEAK3 in series [1] came out at 75%. With B1, the binding result in series [2] is “binds”. Turning to B2, the percent of parent in series [3] was determined as 0.

For the molecule B3, the percent of parent in series [3] is 43.

Regarding B4, in series [4], the “stoichiometry N” value came to 2. For the molecule B5, the percent of parent in series [3] amounted to 57. Same read-out and setting: the result for B6 reads 62; that for B7, 82.

A word on the stoichiometry N: it is the number of molecules, sites or subunits per partner or assembly.

Source of the values: PMC10279700, “Structural insights into regulation of the PEAK3 pseudokinase scaffold by 14-3-3” (Nature Communications, 2023).
